Source: US20160002311A1 (Novo Nordisk, published 2016)
Read-outs that look alike come from different tables or passages of the source. Numbered stars: 1 amine (or outer) side, 2 acyl side, 3 side chain; on linkers, the order of the positions; unused ones are H or OH. Square brackets hold non-standard residues; d marks the D form. Side chains are listed from the residue outwards. Ends that are not written are not given here. * marks the point of attachment. C18 diacid = O=C(O)CCCCCCCCCCCCCCCCC(=O)*; γGlu = O=C(O)[C@H](CCC(=O)[*:2])N[*:1]; Orn = NCCC[C@H](N)C(=O)O; AEEA = NCCOCCOCC(=O)O

Tests used:
glucagon receptor [1] = target: T1, glucagon receptor (UniProt P47871 26-477, limits assumed); test: cell-based or functional assay
glucagon receptor [2] = target: T1, glucagon receptor; test: cell-based or functional assay; remark: listed apart in the source

T1 sequence (P47871 26-477 limits assumed): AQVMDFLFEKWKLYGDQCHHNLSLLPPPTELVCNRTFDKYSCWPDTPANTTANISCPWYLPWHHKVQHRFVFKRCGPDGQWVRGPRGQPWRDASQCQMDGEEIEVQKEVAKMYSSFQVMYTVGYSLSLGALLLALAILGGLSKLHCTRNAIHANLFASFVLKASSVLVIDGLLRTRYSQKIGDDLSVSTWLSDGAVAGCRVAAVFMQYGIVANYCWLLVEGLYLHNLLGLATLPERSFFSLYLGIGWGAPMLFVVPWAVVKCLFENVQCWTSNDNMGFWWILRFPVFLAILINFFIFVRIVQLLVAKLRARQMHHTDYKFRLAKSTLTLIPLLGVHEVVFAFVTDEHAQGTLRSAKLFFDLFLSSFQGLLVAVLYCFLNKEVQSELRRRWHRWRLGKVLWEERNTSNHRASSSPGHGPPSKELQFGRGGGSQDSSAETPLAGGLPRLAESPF

Assay (I) Glucagon [EC50] (glucagon receptor [1]) [nM]	Assay (I) Glucagon [EC50] (glucagon receptor [2]) [nM]	Binder
0.003	–	HSQGTFTSDYSKYLDSKKAQEFVQWLLNT [[K^17,K^18, E^21, L^27] Glucagon]
0.053	–	HSQGTFTSDYSKYLDSKKAQEFVQWLLNK([AEEA-AEEA-γGlu-C18 diacid])
0.036	–	HSQGTFTSDYSKYLDSKKAQEFV[Orn]([AEEA-AEEA-γGlu-C18 diacid])WLLST
–	0.137	H[dS]QGTFTSDYSKYLDEQAARDFVK([AEEA-AEEA-γGlu-C18 diacid])WLLNT-NH2 (N-terminus assumed; SMILES CC(C)C[C@H](NC(=O)[C@H](Cc1ccc(O)cc1)NC(=O)[C@H](CCCCN)NC(=O)[C@H](CO)NC(=O)[C@H](Cc1ccc(O)cc1)NC(=O)[C@H](CC(=O)O)NC(=O)[C@H](CO)NC(=O)[C@@H](NC(=O)[C@H](Cc1ccccc1)NC(=O)[C@@H](NC(=O)CNC(=O)[C@H](CCC(N)=O)NC(=O)[C@@H](CO)NC(=O)[C@@H](N)Cc1c[nH]cn1)[C@@H](C)O)[C@@H](C)O)C(=O)N[C@@H](CC(=O)O)C(=O)N[C@@H](CCC(=O)O)C(=O)N[C@@H](CCC(N)=O)C(=O)N[C@@H](C)C(=O)N[C@@H](C)C(=O)N[C@@H](CCCNC(=N)N)C(=O)N[C@@H](CC(=O)O)C(=O)N[C@@H](Cc1ccccc1)C(=O)N[C@H](C(=O)N[C@@H](CCCCNC(=O)COCCOCCNC(=O)COCCOCCNC(=O)CC[C@H](NC(=O)CCCCCCCCCCCCCCCCC(=O)O)C(=O)O)C(=O)N[C@@H](Cc1c[nH]c2ccccc12)C(=O)N[C@@H](CC(C)C)C(=O)N[C@@H](CC(C)C)C(=O)N[C@@H](CC(N)=O)C(=O)N[C@H](C(N)=O)[C@@H](C)O)C(C)C)
0.051	–	HSQGTFTSDYSKYLDSKKAQEFVK([AEEA-AEEA-γGlu-C18 diacid])WLLDT
